From the supplement of paper PMC9170038

The sequences below were run on K4 kissing-loop RNA reporter (assay: apparent KD of K4 kissing-loop reporter; higher = weaker reporter binding). Settings: Eterna round: R107; input ligand: theophylline 20 uM.
Method: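 RNA-MaP round R107: designed RNA switches with theophylline, tryptophan, arginine or FMN aptamers are transcribed on-chip within common flanks. They are titrated with a labelled K4 kissing-loop RNA reporter in RNA-MaP buffer (100 mM Tris pH 7.5, 80 mM KCl, 4 mM MgCl2), without ligand or with the indicated ligand. Median apparent KD per design.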
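Note: bound reporter read as fluorescence of individual clusters on recovered sequencing chips by microscopy, with normalized cluster intensities fitted with a binding model.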

| Sequence | apparent KD of K4 kissing-loop reporter [nM] |
| --- | --- |
| CUCGUGGGUUUGAGAGGGCUUGUGGGAAGUAAGGAUAUUUAGGGAGGAAGAAGGUACUAUAGAAUAUAGUGAUGUUAUAUAUGGG [SSFMNA.Y] | 406 |
| GCCGUACGCAUGGAUACCAGCAAUCAAACGUCAUGCGAAGUGAUGUUUCGCUUACGGUAGUGCCCUUGGCAGCCAUGCGUACGGC | 91.2 |
| AUUAAUAACAGAGGAUAUGCAUUAUUAUUAUUUUUAAAUAAUAAAUGCAGUGAUGUUGCAUAUUAAGCAGAAGGCUGAUUUAUUU [JR_SSFMNB_Sub011] | 439 |
| AAAGGAUCAGAGAGUGAUGUUCUCUAAUAACGAGGACCGGUACGGCCGCCACUCGAAGAUCCAAAAGUCCUACGAAAAGUAGGAC [Omei inspired 7] | 251 |
| AUUCGUUUAUGUGAUACCAGACUUUGCAGUGAUGUUGCAUUAAUUAAAGAUGUUUAGUUUGUCCCUUGGCAGCACUAUUUAUUUA [JR_SSTheophyB_Sub002] | 83.3 |
| UGGAUAUAGUGAUGUUAUAUAGAGAUGGAUACCAGCAGAGAGAAUUGCCCUUGGCAGCCGAAAGAAGUAUCAUUAGAGAAGAAUG [ExTheophyl.Ai] | 214 |
| AGUGACGUCGCGGCCGCCACUGAAAUGACAGUGAUGUUGUCAAAAGAAAGUGAUGUUAAGAAAUGCAGGACCGGGUGAUAGAAAA [semi-accidental] | 143 |
| UGUUUUUACUGAAGGAGCGGCAAUUGAUACGUAGAUAUAGUGAUGUUAUAUAAGAUAGAGAGCCAGGUAGGUCGCAGAUUUUUUC [ExArgB.Y] | 172 |
| UUUGGAUUGCGCUAAGAGUGCAAGCGCCAACGAGGACCGGUACGGCCGCCACUCGCGGAGGAGUCCAGUGAUGUUGGACGGCCCG [Orbile] | 178 |
| GGUGUUGUUUGUGCUGUUUUCCUCGUUUCUCGAGGACCGGUACGGCCGCCACUCGAGUGAUGUUUGGGUAGCGAUCUUUGUUAGU [Bdazzled - #5 Exc. Tryptophan A] | 177 |
| CGAUAUAAGAAUAUAUAUCUCUAUUCAGAAGGAGCGUGUUUGUACACAGGUAGGUCGCUGAAAUUUAAACUAGUGAUGUUAGACU [JR_SSArginiA_Sub002] | 1000 |

Same assay, conditions: Eterna round: R107; input ligand: tryptophan 2.4 mM

| Sequence | apparent KD of K4 kissing-loop reporter [nM] |
| --- | --- |
| UGUACCGAGUCAGGAUAUACCGUCGAAAGACGAAAUGGAGUGAUGUUCCUUAAACUGCGAAAGCAGGUAGAAGGGACUUGGUACU [FmnBS 30 #SwitchBubble #StaticStem #DoubleMagnetSystem] | 262 |
| GGGUAUUACGGAGGAUAUGCACUGAGGAGGAGAAUAUAGUGAUGUUAUAUAAGAGGAAGGAGAAGAGUAGAAGGCCGUGGUGUUU [SSFMNB.J] | 109 |
| GUCCCAGUGAUGUUGGUAGGCGGGCGGGAUACCAGCGAAGACUCACGCCCUUGGCAGCCCACAUAUCCCGCGUAGGGAUUAGCCC [Same State - Theophylline A (Freestyle 22)] | 457 |
| AAAUAGCAGCAACGAGUGAUGUUCGACGAUACCAGCCUCGAUAGAGGCCCUUGGCAGCGUAAAUGAUCACAAAGCCAAGGGCUGC [#SwitchBubble 2] | 397 |
| GGAUCCACCAGUGAUGUUGGAGAAAACUCCAAGGAUAUGACGAAAGUCAGAAGGUGGUAAUAAGACGUCAAAGACGUCGGAUCCA [FmnA 19 #SwitchBubble #K4Early] | 150 |
| CGCAGUGAUGUUGCUUAUAUUCUUGGUUAACGAGGACCGGUACGGCCGCCACUCGAUUUCUAUCUAUUCCAGUGUUAAUUUGAGU [JR_ExcTryptoA_Sub005] | 271 |
| GAGGAUUGAACGGCCGCCACUGCGCGCAGCUGCAAUCGAGUGAUGUUCCAUCAGUUGUCCAGUUCCAGGACCGGGUUCCGAUGCC [theeternabot_exclusion_KL_Trp_B_12] | 471 |
| AUUUAUGUUUCGGCCGCCACUCCACGUACUCAGAGAGAGUGAUGUUCUUUUUAUUAACGUCUAUGGAGGACCGGGAAGAGGUGAG [theeternabot_exclusion_KL_Trp_B_37] | 536 |
| UUUUAUUAGUAGUGAUGUUACUAAACUGAAGGAGCGAGAUUUAACUCAGGUAGGUCGCAGAAAAUCAAUUAAUUUAUAAAUUAAA [JR_SSArginiA_Sub011] | 94.6 |
| UAAAUUAUCUGAAGGAGCGUGAAAUAAUAUUAAACAUAACAACCCAGUGAUGUUGGGUUAUCACAGGUAGGUCGCAGAUGUAGAU [Same State Arginie B GF 24] | 85.5 |
| AGAACUGUCUGAGAUACCAGCCAAGGAGUGAUGUUCCGGCUCGACGAAACGUCGAGCCAUGGCCCUUGGCAGCUCAGACAGUUCA [Omei KL Theo B SS A v2] | 102 |
| UUAUAUUUUAUAUUUAGUAGAGCUCUAGCUCGAGGACCGGUACGGCCGCCACUCGAGUGAUGUUCGAGUGGAAGAGCUCUACAUU [AK3.1 EXC Tryptophan A] | 435 |
| UCUGUUGUAUAUGAUACCAGCAGUGAGAGAUGAGAAGUAUAGUGAUGUUAUAUGAGUGAAUGCCCUUGGCAGCGUGUGCGUGUGG [SSTheophylB.aD] | 87.5 |
| UGUAUGUGAUUUGAUACCAGACCAGCUGGUGGUACCUGAGUGAUGUUCGGGAUGGUUUGGGUCCCUUGGCAGCAAAUCGCAUACU [KL-SSTheoB20] | 170 |
| AACGACUGGAUGAAUAACAUCUAGUCGAUUCGAGGACCGGUACGGCCGCCACUCGAGCUAACUGCGAGUGAUGUUCGAUAAUAAA [#OpenEnded 3] | 96.6 |
| UUUAAACAUAGUGAUGUUAUGUAACAAUGACGAGGACCGGUACGGCCGCCACUCGAGAGAGAUAAUGAUAAAAUAAAUAAUUUUC [#09 K4 Tryptophan A Same State] | 92.4 |
| GGUGUUGUUUGUGCUGUUUUCUUCGUUUCUCGAGGACCGGUACGGCCGCCACUCGAGUGAUGUUUGGGUAGCGAUGUUUGUUAGU [Bdazzled - #3 - Exc. Tryptophan A] | 470 |
| GGCAGUGAUGUUGCCAGUGGCAGAUGCGAAGGAGCGCGGUGAGACGCAGGUAGGUCGCGCAUUGAAAUUGCUGUCACUAGAAUGC [whbob_Ex_Arginine_A_2t127] | 208 |
| UGAUACCAGACUGAUACCAGCCACAGAGUCAAAGACUCUGAAAGGGAAACCAGUGAUGUUGGCCCUUGGCAGCAGUCUGGUAUCU [TheoBX 23 #SwitchBubble #StaticStem] | 431 |
| UACUAUAGUGAUGUUAUAGAUAAACCAGAUACCAGUGUAACAUAACACCCUUGGCAGCUGAUAAGGGAAAGUAUAAAUGUGUAUU [AstrosSSTHe-A#3newdesignED] | 205 |
| UGGUUAAGCAGUGAUGUUGCAAGUGAUGAUACCAGUUAAGAAGAGAACCCUUGGCAGCAUAAAGUGCGCUCUGAUGAGUGUGCUU [whbob_SS_Theo_A_w55] | 165 |

| Sequence | apparent KD of K4 kissing-loop reporter [nM] |
| --- | --- |
| AGACUACCACACUGUCAAUAGACAGUGGACUAGGAUAUGCUGAUAAGCAGAAGGAGUGAUGUUCCCAGGUAGUCAAUAAAAUAAU [FmnAX 13 G28+C66] | 246 |
| ACACUUUACGUAGGAUAUGCGACGAGUGAUGUUCGUCAGGCGGCUUUAGAUUAUACAAGCCGCCUAGCAGAAGGACGGGCAGUGU [Araar] | 170 |
| AGAGUUAAUUAGUCUUUUUUCACAUUAAGUCAGGAUAUCGUAUUUUCGAGAAGGGACACAUGCUAGUGAUGUUAGCUAUUUCUCA [JR_Nu3_ExcFMNA_Sub020] | 59.6 |
| ACGCGCGCGAGUGAUGUUCGGAGCGGCUGGCAGGAUAUGUAGCAAUGCAGAAGGGUCGUGGCGGUGGGCGCGCAAGCGGCUGCCG [#2 Exclusion - FMN A Attempt #12 (HarryS)] | 371 |
| AGGUUUUGCGGAGGAUAUGCACUGAGGAGGAGAAUAUAGUGAUGUUAUAUAAGAGGAAGGAGAAGAGUAGAAGGCCGUGAGGUUU [SSFMNB.N] | 82.1 |
| ACGAAUCCAGCGGCCGCCACUAUUCGAUGAGUGAUGUUUAGGAGUAGAUCAUACCGCCGUGGUAAUAGGACCGGGCUCUUUGUAG [theeternabot_exclusion_KL_Trp_B_36] | 207 |
| CAUCACGCAAUCACGGAUGCAAGCAUUGAUACCAGAACCGAUUAUUUCCCUUGGCAGCAACACGGAGUGAUGUUCCUAGCAUAUA [theeternabot_sameState_KL_Theo_A_21] | 75.5 |
| AGGAGCGUGCGAUGAAAAUCGCACGCUCCUCGAGGACCGGUACGGCCGCCACUCGCUCGCGCCGAGUGAUGUUCGGCCGGCGAAC [#2 Same State - Tryptophan A Attempt #8 (HarryS)] | 966 |
| UUAGCUCUAUAGAGCAAGAGGUAUACUGAUACCAGAGGCUAUAGCCUCCCUUGGCAGCGGAACGAGUGAUGUUCGAAACCUCAUU [AK5 SS Theophylline A] | 526 |
| CCUAUCUCAUACGAUACCAGUCAAUGAUAUUUUAUCAAUGCCAUCACCGAGUGAUGUUCGGACCCUUGGCAGCGUAUGGGAUAGG [whbob_Ex_Theo_B_sa101] | 238 |
| CUCGUGGGUUUGAGAGGGCUUGUGGGAAGUAAGGAUAUUUAGGGAGGAAGAAGGUACUAUAGAAUAUAGUGAUGUUAUAUAUGGG [SSFMNA.Y] | 244 |
| GCCGUACGCAUGGAUACCAGCAAUCAAACGUCAUGCGAAGUGAUGUUUCGCUUACGGUAGUGCCCUUGGCAGCCAUGCGUACGGC | 130 |
| AUUAAUAACAGAGGAUAUGCAUUAUUAUUAUUUUUAAAUAAUAAAUGCAGUGAUGUUGCAUAUUAAGCAGAAGGCUGAUUUAUUU [JR_SSFMNB_Sub011] | 353 |
| AAAGGAUCAGAGAGUGAUGUUCUCUAAUAACGAGGACCGGUACGGCCGCCACUCGAAGAUCCAAAAGUCCUACGAAAAGUAGGAC [Omei inspired 7] | 263 |
| AUUCGUUUAUGUGAUACCAGACUUUGCAGUGAUGUUGCAUUAAUUAAAGAUGUUUAGUUUGUCCCUUGGCAGCACUAUUUAUUUA [JR_SSTheophyB_Sub002] | 38.9 |
| UGGAUAUAGUGAUGUUAUAUAGAGAUGGAUACCAGCAGAGAGAAUUGCCCUUGGCAGCCGAAAGAAGUAUCAUUAGAGAAGAAUG [ExTheophyl.Ai] | 210 |
| AGUGACGUCGCGGCCGCCACUGAAAUGACAGUGAUGUUGUCAAAAGAAAGUGAUGUUAAGAAAUGCAGGACCGGGUGAUAGAAAA [semi-accidental] | 125 |
| UGUUUUUACUGAAGGAGCGGCAAUUGAUACGUAGAUAUAGUGAUGUUAUAUAAGAUAGAGAGCCAGGUAGGUCGCAGAUUUUUUC [ExArgB.Y] | 136 |
| UUUGGAUUGCGCUAAGAGUGCAAGCGCCAACGAGGACCGGUACGGCCGCCACUCGCGGAGGAGUCCAGUGAUGUUGGACGGCCCG [Orbile] | 183 |
| GGUGUUGUUUGUGCUGUUUUCCUCGUUUCUCGAGGACCGGUACGGCCGCCACUCGAGUGAUGUUUGGGUAGCGAUCUUUGUUAGU [Bdazzled - #5 Exc. Tryptophan A] | 281 |
| CGAUAUAAGAAUAUAUAUCUCUAUUCAGAAGGAGCGUGUUUGUACACAGGUAGGUCGCUGAAAUUUAAACUAGUGAUGUUAGACU [JR_SSArginiA_Sub002] | 890 |
